Experimental data taken from patent publication US12612650B2, “Methods for improved homologous recombination and compositions thereof” (LIFE TECHNOLOGIES CORPORATION, priority 2017, dated 2026).
Several values for one entry are separate records, joined by “and”; a condition that tells them apart may be missing. Equal entries are not always repeated. Marks after values point to notes of the source that are not given here.

Key:
Type in all cases: cell-based, human
LRRK2 genomic locus = test: Junction PCR and sequencing of clonal A549 cells, N-terminal tagging of LRRK2
Method: (§1) 293FT or A549 cells were maintained in DMEM medium supplemented with 10% FBS. On the day of transfection, cells were detached from the culture flask and counted. For each electroporation, 1.5 μg of Cas9 protein and 360 ng of gRNA were added to Resuspension Buffer R to a final volume of 7 μl, but the total volume of Cas9 protein plus gRNA added was less than 1 μl. Upon mixing, the sample was incubated at room temperature for 5 to 10 minutes to form Cas9 RNPs complex. Meanwhile, aliquots of 1×10^6 cells were washed once with DPBS without Ca^2+ and Mg^2+ and the cell pellets were resuspended in 50 μl of Resuspension Buffer R. A 5 μl aliquot of cell suspension was then mixed with 7 μl of Cas9 RNPs, followed by addition of 1 μl indicated amount of donor DNA. 10 μl of cell suspension containing Cas9 RNP and donor was applied to NEON® electroporation (Thermo Fisher Scientific, cat. no. MPK5000) with voltage set at 1150V, pulse width set at 20 ms, and the number of pulses set at 2, respectively. The electroporated cells were transferred to a 48-well plate containing 0.5 ml culture media. Samples without either gRNA or donor DNA served as controls. At 48 hours post transfection, the cells were analyzed by flow cytometry. Alternatively, the genomic loci were PCR-amplified with the corresponding primers. The resulting PCR fragments were analyzed using the GENEART® Genomic Cleavage Detection assay. The edited cells were further subjected to limiting dilution, followed by clonal cell isolation. The clonal cells were characterized by PCR amplification of both the N- and C-terminal junctions and sequencing. The sequencing data were analyzed using VECTOR NTI ADVANCE® 11.5 software (Thermo Fisher Scientific).
Besides beta-actin, we also evaluated a different protein in a different cell line. LRRK2 protein is related to Parkinson's disease with a molecular weight of approximately 280 kd. A gRNA was designed to target the LRRK2 genomic locus near the start codon. Approximately 35 nt homology arms were added to a sequence-verified promoterless puromycin-P2A-EmGFP DNA fragment via PCR amplification. The Cas9 RNP and donor DNA were co-delivered into A549 cells via NEON® electroporation using 1050 volts, 30 milliseconds and 2 pulses. Because LRRK2 is relatively low abundant protein, we were not able to detect EmGFP signal inside the cells. […] To examine the integration efficiency, the cells were treated with 0.75 μg/ml puromycin for 7 days at 48 hours post transfection, followed by limiting dilution and clonal cell isolation. The junctions were analyzed by PCR using one inner primer and one outer primer, or a pair of outer primers. The resulting PCR products were analyzed by sequencing to determine the precision of integration. […]

[1] = tested on: genomic locus of beta-actin; test: OFP-positive cells by flow cytometry after electroporation of Cas9 RNP and donor DNA into 293FT cells
Method: as §1
To evaluate the strategy of tagging endogenous protein, we fused the OFP gene to the N-terminus of beta-actin. Beta-actin is one of the most abundant proteins in eukaryotes, so it is easy to monitor using fluorescence microscopy. A gRNA was designed and synthesized to target the genomic locus of beta-actin near the ATG start codon (Table 12) and then complexed with Cas9 nuclease to form RNPs. The relevant 35 nt homology arms were added to a sequence-verified promoterless puromycin-P2A-OFP DNA fragment by PCR amplification. The resulting donor PCR fragments were purified using PureLink™ PCR Purification Kit and then concentrated using a speed-vac to a final concentration of around 1 μg/μl. To examine the effect of donor dosage on HDR efficient, we kept the amount of Cas9 RNP constant and varied the amount of donor DNA. The Cas9 RNP and donor DNA were transfected into 293 FT via electroporation. At 48 hours post transfection, the cells were analyzed by fluorescence microscope. When the cells were transfected with Cas9 RNP alone or Cas9 protein with donor DNA, no OFP-positive cells were detected, whereas OFP-positive cells were observed when cells were transfected with Cas9 RNP and donor DNA. The percentages of OFP-positive cells were determined by flow cytometric analysis. Without selection, the percentage of OFP-positive cells increased from approximately 5% to 20% when the amount of donor DNA increased from 25 ng to 500 ng (FIG. 2A). The optimal amount of donor DNA was around 500 ng per reaction. On the other hand, after treatment of transfected cells with 1 μg/ml puromycin for 7 days, approximately 80% of cells were OFP-positive. There was no significant difference in the percentage of OFP-positive cells between different amounts of donor DNA (FIG. 2A). Next, we examined the effect of homology arm length on HDR efficiency. Various lengths of homology arms were added to the promoterless puromycin-P2A-OFP DNA fragment by PCR amplification. As depicted in FIG. 2B, when the homology arm length increased from 12 nt to 80 nt, the percentage of OFP-positive cells increased and then plateaued at around 35 nt.
Traditionally, a plasmid donor was used to incorporate large DNA molecules into the genome. […]

beta-actin locus = test: Junction PCR and sequencing of clonal 293FT cells, integration at beta-actin locus
Method: as §1
To examine the identity of integration sites, cells transfected with Cas9 RNP and donor DNA were subjected to puromycin selection, limiting dilution, and clonal cell isolation. A total of 48 colonies were randomly picked for junction PCR analysis. […] All the other 47 colonies gave rise to PCR products for both N- and C-terminal junctions when one outer primer and one inner primer were used. The PCR product was also observed when a pair of outer primers was used with the size of about 420 bp, which corresponded to the genomic DNA fragment without an insert. The reason why a large PCR product containing the insert was not observed was because the smaller DNA fragment without the insert was preferentially amplified. […] The other 18% of clonal cells also contained the insert but had mutations at the junction areas (FIG. 3A(2)). Most of the mutations were deletion and insertion. Sometimes a duplicate sequence of a partial or full-length homology arm was inserted at the junction. At the C-terminal junction, approximately 78% of the clonal cells harbored precise HDR (FIG. 3B(1)) whereas the other 22% of cells had Indel formation at the junction (FIG. 3B(2)). Rarely, a relatively large piece of donor DNA (up to 165 nt) was deleted at the C-terminal junction. Overall, all the clonal cells contained one copy of donor DNA at the right genomic locus in one of the alleles with 68% of cells harbored precise HDR at both N- and C-termini and 32% of cells harbored imperfect HDR at either N- or C-terminus or both. […] Instead, approximately 80% of the clones had one “A” insertion at the Cas9 cleavage site and 20% of the clones harbored more than 2 nt deletion. Only one wild type clone was detected at the second allele (FIG. 3C). Most of the clones expressed both wild type beta-actin and OFP fusion of beta-actin as confirmed by Western Blot analysis.
To characterize each clonal cell in the stable pool, we performed limiting dilution and clonal cell isolation. The junctions of integration were analyzed by PCR and sequencing. As depicted in FIGS. 8B and 8C, approximately 88% of clonal cells harbored precise integration at N-terminal junction whereas 12% of clonal cells had some extra sequences inserted at the junction. […]

[2] = LRRK2, N-terminus, A549 clonal cells
[3] = Beta-actin, N-terminus, 293FT clonal cells

Q: Which “Efficiency at allele 1 HDR/Indel” value (LRRK2 genomic locus; [2]) does the source give for “puromycin-P2A-EmGFP: donor DNA, 1.4 kb: promoterless puromycin-P2A-EmGFP fragment with approximately 35 nt homology arms to LRRK2 locus” here?
A: 0%

Q: What about the “Efficiency at allele 1 Precise HDR” value (LRRK2 genomic locus; [2]) of the same molecule?
A: 100%

Q: What about the “Efficiency at allele 2 No HDR/Indel” value (LRRK2 genomic locus; LRRK2, N-terminus, A549 clonal cells, 7 nt deletion) of the same molecule?
A: 80%

Q: And the integration efficiency (LRRK2 genomic locus; all 86 colonies contained at least one copy of the insert)?
A: 100%

B1: puromycin-P2A-OFP: donor DNA, 1.4 kb: promoterless puromycin-P2A-OFP fragment with 35 nt homology arms to the beta-actin locus (nucleic acid)
DNA: CACAGCGCGCCCGGCTATTCTCGCAGCTCACCATGACCGAGTACAAGCCCACAGTGCGGCTGGCCACCAGGGACGATGTGCCTAGAGCTGTGCGGACACTGGCCGCTGCCTTCGCCGATTACCCTGCCACCAGACACACCGTGGACCCCGACAGACACATCGAGAGAGTGACCGAGCTGCAGGAACTGTTTCTGACCAGAGTGGGCCTGGACATCGGCAAAGTGTGGGTGGCCGATGATGGCGCCGCTGTGGCTGTGTGGACAACCCCTGAGTCTGTGGAAGCCGGCGCTGTGTTCGCCGAGATCGGACCTAGAATGGCCGAGCTGAGCGGCTCTAGACTGGCTGCCCAGCAGCAGATGGAAGGCCTGCTGGCCCCCCACAGACCTAAAGAGCCTGCCTGGTTTCTGGCCACCGTGGGCGTGTCACCTGACCACCAGGGCAAGGGACTGGGATCTGCTGTGGTGCTGCCTGGCGTGGAAGCTGCTGAAAGGGCTGGCGTGCCCGCCTTCCTGGAAACAAGCGCCCCCAGAAACCTGCCCTTCTACGAGAGACTGGGCTTCACCGTGACCGCCGACGTGGAAGTGCCTGAGGGCCCTAGAACCTGGTGCATGACCAGAAAGCCTGGCGCCGGAAGCGGAGCTACTAACTTCAGCCTGCTGAAGCAGGCTGGAGACGTGGAGGAGAACCCTGGACCTAACCTGAGCAAAAACGTGAGCGTGAGCGTGTATATGAAGGGGAACGTCAACAATCATGAGTTTGAGTACGACGGGGAAGGTGGTGGTGATCCTTATACAGGTAAATATTCCATGAAGATGACGCTACGTGGTCAAAATTCCCTACCCTTTTCCTATGATATCATTACCACGGCATTTCAGTATGGTTTCCGCGTATTTACAAAATACCCTGAGGGAATTGTTGACTATTTTAAGGATTCGCTTCCCGACGCATTCCAGTGGAACAGACGAATTGTGTTTGAAGATGGTGGAGTACTAAACATGAGCAGTGATATCACATATAAAGATAATGTTCTGCATGGTGACGTCAAGGCTGAGGGAGTGAACTTCCCGCCGAATGGGCCAGTGATGAAGAATGAAATTGTGATGGAGGAACCGACTGAAGAAACATTTACTCCAAAAAACGGGGTTCTTGTTGGCTTTTGTCCCAAAGCGTACTTACTTAAAGATGGTTCCTATTACTATGGAAATATGACAACATTTTACAGATCCAAGAAATCTGGCCAGGCACCTCCTGGGTATCACTTTGTTAAGCATCGTCTCGTCAAGACCAATGTGGGACATGGATTTAAGACGGTTGAGCAGACTGAATATGCCACTGCTCATGTCAGTGATCTTCCCAAATTCGAAGCTGATGATGATATCGCCGCGCTCGTCGTCGACAACGG
modifications: misc_feature 1..1402 Description of Unknown: Beta Actin sequence
notes: donor DNA, 1.4 kb: promoterless puromycin-P2A-OFP fragment with 35 nt homology arms to the beta-actin locus
Q: What does the source list for B1?
A: percentage of OFP-positive cells ([1]; after 1 μg/ml puromycin for 7 days): approximately 80%; % of functional Cells ([1]; determined by flow cytometry): 80%^a; homology arm length at which percentage of OFP-positive cells plateaued ([1]; homology arm length 12 nt to 80 nt): around 35 nt; optimal amount of donor DNA ([1]; without selection): around 500 ng per reaction; percentage of OFP-positive cells ([1]; without selection, 25 ng donor DNA, 48 hours post transfection): approximately 5%; percentage of OFP-positive cells ([1]; without selection, 500 ng donor DNA, 48 hours post transfection): ~20%; Efficiency at allele 1 HDR/Indel (beta-actin locus; [3]): 32%; Efficiency at allele 2 No HDR/Indel (beta-actin locus; [3]): 100%; Efficiency at allele 2 Precise HDR (beta-actin locus; [3]): 0%; clonal cells with Indel formation / small mutations at the C-terminal junction (beta-actin locus; beta-actin locus, 293FT): 22%; clonal cells with mutations or extra sequences at the N-terminal junction (beta-actin locus; beta-actin locus, 293FT): 18%; clonal cells with precise HDR / correct junction at the C-terminal junction (beta-actin locus; beta-actin locus, 293FT): approximately 78%; clonal cells with precise HDR at the N-terminal junction (beta-actin locus; beta-actin locus, 293FT): approximately 82%; clones wild type (wt) (beta-actin locus; second allele): 2%; clones with more than 2 nt deletion (beta-actin locus; second allele (no insert)): 18% and 20%; clones with one 'A' insertion at the Cas9 cleavage site (beta-actin locus; second allele (no insert)): approximately 80%
